Assay results reported in patent US20150198603A1 (TORAY INDUSTRIES, published 2015).

Columns and labels:
[1] = molecular target: T1, human CAPRIN-1 as expressed on human breast cancer cell line MDA-MB-231V and in human cancer tissues (human, UniProt Q14444 2-709); assay: flow cytometry on MDA-MB-231V cells expressing CAPRIN-1
T1 construct: whole, on cells; Endogenous protein on cells (flow cytometry) or in paraffin tissue sections (immunohistochemistry); also called CAPRIN-1 on the surface of breast cancer cells; CAPRIN-1 in the breast cancer tissues
T1 sequence (looked up): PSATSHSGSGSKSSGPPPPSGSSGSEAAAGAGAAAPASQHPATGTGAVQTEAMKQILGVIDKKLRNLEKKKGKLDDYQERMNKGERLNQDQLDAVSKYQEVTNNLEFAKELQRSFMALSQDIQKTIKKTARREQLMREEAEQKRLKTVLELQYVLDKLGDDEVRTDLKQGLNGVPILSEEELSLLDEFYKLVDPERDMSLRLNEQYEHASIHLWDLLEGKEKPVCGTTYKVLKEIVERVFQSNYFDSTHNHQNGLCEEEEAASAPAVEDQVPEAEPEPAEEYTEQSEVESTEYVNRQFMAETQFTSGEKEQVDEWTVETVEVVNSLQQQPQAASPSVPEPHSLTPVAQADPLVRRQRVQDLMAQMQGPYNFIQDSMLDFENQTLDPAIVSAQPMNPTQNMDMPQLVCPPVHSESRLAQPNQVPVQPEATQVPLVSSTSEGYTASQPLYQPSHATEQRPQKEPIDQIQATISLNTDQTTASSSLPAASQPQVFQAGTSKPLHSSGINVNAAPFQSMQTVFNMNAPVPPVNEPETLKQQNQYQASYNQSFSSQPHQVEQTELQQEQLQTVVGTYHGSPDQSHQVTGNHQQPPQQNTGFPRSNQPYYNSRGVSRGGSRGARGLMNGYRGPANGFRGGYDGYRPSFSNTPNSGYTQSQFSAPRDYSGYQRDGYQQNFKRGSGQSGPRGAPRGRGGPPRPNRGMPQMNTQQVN
Method: Next, these monoclonal antibodies were screened for antibodies reactive with the surface of breast cancer cells expressing CAPRIN-1. Specifically, 5×10⁵ cells of a human breast cancer cell line MDA-MB-231V were centrifuged in a 1.5-mL microcentrifuge tube. 100 μL of the culture supernatant of each hybridoma obtained above was added thereto and left standing for 1 hour on ice. After washing with PBS, FITC-labeled goat anti-chicken IgG (H+L) antibodies (SouthernBiotech) diluted 30-fold with PBS containing 0.1% FBS were added thereto and left standing for 1 hour on ice. After washing with PBS, the fluorescence intensity was measured using FACSCalibur (Becton, Dickinson and Company). On the other hand, the same operation as above was performed using a medium for hybridoma culture to prepare a control sample. As a result, 1 monoclonal antibody (chicken anti-human CAPRIN-1 monoclonal antibody #11) having stronger fluorescence intensity than that of the control, i.e., reactive with the surface of breast cancer cells expressing CAPRIN-1, was selected.

[2] = molecular target: T2, peptide consisting of the amino acid sequence shown in SEQ ID NO: 66 (partial CAPRIN-1 sequence) (human); assay: told from the digestion and MS/MS experiment done with #12
T2 peptide: QQPQAASPSVPE
Method: The cancer cell surface-reactive mouse-chicken chimeric anti-human CAPRIN-1 monoclonal antibody #12 obtained in the paragraph (4) was used to identify a CAPRIN-1 epitope region recognized thereby. 100 μg of recombinant CAPRIN-1 proteins was dissolved in a […] dissolving buffer and reacted with the monoclonal antibody #12. To this solution, a digestive enzyme trypsin or chymotrypsin was added, followed by digestion reaction at a proper temperature. After the reaction, a protein G Sepharose carrier was added thereto, then reacted, and precipitated by centrifugation operation. After removal of the supernatant, the carrier was washed with a dissolving buffer and PBS and dissolved in 0.1% formic acid, and the supernatant was recovered. The recovered supernatant sample was applied to a reverse-phase column (HLB Extraction Cartridge (Waters-OASIS)) to obtain an antibody-free sample solution. The obtained sample was subjected to reverse-phase liquid chromatography (Chromatography Nanosytem (KYA Technologies Corp.)) to recover a solution containing only peptides. The solution was introduced to a tandem-type mass spectrometer Quadrupole-TOF Mass Spectrometer (Waters-MicroMass) and analyzed by MS/MS to detect the peptides contained in the sample. […]

[3] = molecular target: T3, human CAPRIN-1 having the amino acid sequence shown in SEQ ID NO: 2 (recombinant, as prepared in Example 3 of … (human, UniProt Q14444 1-709)); assay: ELISA, plate coated with 1 µg/mL CAPRIN-1, hybridoma supernatant
T3 construct: limits and tags of the recombinant construct are described only in WO2010/016526; also called recombinant CAPRIN-1; CAPRIN-1 solution
T3 sequence: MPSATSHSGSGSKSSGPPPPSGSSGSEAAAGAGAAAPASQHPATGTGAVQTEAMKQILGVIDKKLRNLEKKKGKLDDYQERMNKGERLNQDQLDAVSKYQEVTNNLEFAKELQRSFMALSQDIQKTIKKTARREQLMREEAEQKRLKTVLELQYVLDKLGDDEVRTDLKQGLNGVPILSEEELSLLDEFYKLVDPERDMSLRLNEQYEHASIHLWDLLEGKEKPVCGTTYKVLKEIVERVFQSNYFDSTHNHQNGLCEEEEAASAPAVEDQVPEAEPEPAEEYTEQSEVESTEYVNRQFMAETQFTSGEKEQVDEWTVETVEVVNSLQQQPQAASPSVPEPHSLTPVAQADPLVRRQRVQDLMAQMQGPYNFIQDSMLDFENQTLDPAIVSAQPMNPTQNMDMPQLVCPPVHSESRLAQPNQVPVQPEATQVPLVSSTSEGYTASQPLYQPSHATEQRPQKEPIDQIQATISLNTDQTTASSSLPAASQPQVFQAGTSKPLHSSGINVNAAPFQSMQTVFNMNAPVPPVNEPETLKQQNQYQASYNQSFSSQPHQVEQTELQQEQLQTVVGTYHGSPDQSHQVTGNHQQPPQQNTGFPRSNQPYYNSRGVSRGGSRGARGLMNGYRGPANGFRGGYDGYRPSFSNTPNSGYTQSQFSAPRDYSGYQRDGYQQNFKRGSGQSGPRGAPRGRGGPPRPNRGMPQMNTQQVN
Method: The prepared hybridomas were screened with the binding affinity of antibodies produced by the hybridomas against CAPRIN-1 as an indicator. The 1 μg/mL CAPRIN-1 solution was added to a 96-well plate at 100 μL/well and left standing at 4° C. for 18 hours. Each well was washed three times with PBS-T. Then, a 0.5% bovine serum albumin (BSA) solution (Sigma-Aldrich Corp.) was added thereto at 400 μL/well and left standing at room temperature for 3 hours. The solution in each well was discarded, and each well was washed three times with 400 μL of PBS-T. Then, the culture supernatant of each hybridoma obtained above was added thereto at 100 μL/well and left standing at room temperature for 2 hours. Each well was washed three times with PBS-T. Then, HRP-labeled anti-chicken IgY antibodies (Sigma-Aldrich Corp.) diluted 5000-fold with PBS were added thereto at 100 μL/well and left standing at room temperature for 1 hour. Each well was washed three times with PBS-T. Then, a TMB substrate solution (Thermo Fisher Scientific Inc.) was added thereto at 100 μL/well and left standing for 15 to 30 minutes to cause color reaction. […] The absorbance was measured at 450 nm and 595 nm using an absorption spectrometer. As a result, several hybridomas producing antibodies having high absorbance were selected as candidate lines of the hybridoma of interest.

binding result [1]: binds
binding result [2]: binds
binding result [3]: binds
B1: chicken anti-human CAPRIN-1 monoclonal antibody #11 (antibody, V domains shown)
VH: AVTLDESGGGLQMSRGGLSLVCKASGFDFSSYQMNWIRQAPGKGLEFVAAINKFGNSTGHGAAVKGRVTISRDNGQSTVRLQLNNLRAEDTAIYFCTKHAYGYCGSGTWCAAGEIDAWGHGTEVIVSS
VL: QAASTQPSSVSANPGETVEITCSGGGSYSYGWFQQKSPGSAPVTVIYYNNKRPSDIPSRFSGSKSGSTGTLTITGVQADDEAVYYCGSGDSTDTAVFGAGTTLTVLG
notes: Chicken hybridoma antibody; also called chicken monoclonal antibody #11
